Experiment: yeast display, Sf9 membrane polyspecificity reagent, FACS + sequencing; frameworks hold sequencing errors
In short: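 After 36–48 hours of galactose induction, yeast (Saccharomyces cerevisiae BJ5465) displaying a synthetic nanobody library were stained at 4 °C for 1 hour with 10% biotinylated, detergent-solubilized Sf9 membrane reagent. Streptavidin microbeads enriched the stained cells before FACS sorting into low and high (top ~1%) gates on anti-HA and streptavidin fluorescence. Each clone's polyreactivity label reflects its gate of origin.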

Sequence	polyreactivity (PSR sort gate)
QVQLVESGGGLVQAGGSLRLSCASSGSIFFEYAMVWYRQAPGKERELDASINRGGGSTYYADSVKGRFTISRDNAKNTVYLQMNSLKPEDTAVYYCAAQWKYRQSYLDYYWGQGTQVTVSS	low polyreactivity
QVQLVESGGGLVQAGGSLRLSCAASGRIFPLYAMGWYRQAPGKERELVARITYSGGSTYYADSVKGRFTISRDNAKNTVYLQMNSLKPEDTAVYYCAKDTYGRSTRNGYWGQGTQVTVSS	low polyreactivity
QVQLVESGGGLVQAGGSLRLSCAASGFTFGRYAMGWYRQAPGKERELVASISRSGGSTNYADSVKGRFTISRDNAKNTVYLQMNSLKPEDTAVYYCAAVKGRRYDYWGQGTQVTVSS	high polyreactivity
QVQLVESGGGLVQAGGSLRLSCAASGYTFDINAMGWYRQAPGKERELVADISANDGSTSYADSVKGRFTISRDNAKNTVYLQMNSLKPEDTAVYYCAADYIWNPTWSVGYGDPGYDYCGQGTQVTVSS	low polyreactivity
QVQLVESGGRLVQAGGSLRLSCAASAITFGHNAMGWYRQAPGKGRELVATISTRGGSTYADSVKGRFTISRDNAKNTVYLQMNSLKPEDTAVYYCAAPAGGYVPYFYEFDYWGQGTQVTVSS	low polyreactivity
QVQLVESGGGLVQAGGSLRLSCAASGITFTFNAKGWYRQAPGKERELVAAISSTTSTIYADSVKRRFTISRDNAKNTVYLQMNRLKPEDTAVYYCAAVEFELLGDYWRQGTQVTVSS	low polyreactivity
QVQLVESGGGLVQAGGSLRLSCAASGFTFSRNAMGWYRQAPGKERELVAAITSRGGSTYYADSVKGRFTISRDNAKNTVYLQMNSLKPEDTAVYYCNAKLISGIYTADSRSRIYDYWGQGTQVTVSS	high polyreactivity
QVQLVESGGGLVQAGGSLRLRCAASGFTFTKNAIGWYRQAPGKERELVAAITRRGSSTYYADSVKGRFTISRDNAKNTVYIQMNSLKPEDTAVYYCNADYETISGDYWGQGTQVTVSS	high polyreactivity
QVQLVESGGGLVQAGGRLRLSCAASGSIFSSNAMGWYRQAPGKERELVASIRGSGVSTYYADSVKGRFTISRDNAKNTVYLQMNSMKPEDTAVYYCAARYGRSYFGYYFWGQGTQVTVSS	high polyreactivity
QVQLQESGGGLVQAGGSLRLSCAASGSNFDTPTMGWYRQAPGKERELVASIAYDDNTYYADSVKGRFTISRYNAKNTVYLQMNSLKPGETAVYYCAVTDRIYYYFVYWGQGTRVTVSS	high polyreactivity
QVQLVESGGGLVQAGGSLRLSCAASGSIFQSYDMGWYRQAPGKERELVAAIRSGDSTYYADSVKGRFTISRDNAKNTVYLQMNSLKPEDTAVYYCNARYGNESQGWEDYWGQGTQVTVSS	low polyreactivity
QVQLVESGGGLVQAGGSLRLSCAASGSIFQRYAMGWYRQAPGKEREFVAAISGRGGSTYYADSVKGRFTISRDNAKNTVYLQMNSLKPEDTAVYSCAADSSRFYGRPRYYYWGQGTQVTVSS	high polyreactivity
QVQLVESGGCLVQAGGSLRLSCAASGRIFIRYTMGWYRQAPGKERELVAAISKSGGRTYYADSVKGRFTISRDNAKNTDYLQMNSLKPEYTAVYDCNKDTDSQYSWGQGTQVTVSS	high polyreactivity
QVQLVESGGGLVQAGGSLRLICAASGSTFYHNVMGWYRQAPGKERELLASIYRGGSTYYADSVKGRFTISRDNAKNTVYVQMNSLKPEDTAVYYCAADLSSDSSYSGYDYSGQGTQVTVSS	low polyreactivity
QVQLVESGGGLVQAGGSLRLSCSASGRIFSPYAMGWYRQAPGKERELVAAISWRGSSTYYADSVKGRFTISPDNAKNTVYLQMNSLKPEDTAVYYCAAPSSKYWGQGTQVTVSS	low polyreactivity
QVQLVESGGGLVQAGGSLRLSCAASGFTFPYYAMGWYRQAPGKERELVAAISRNGGSTYYADSVKGRFTISRDNAKNTVYLQMNSLKPEDTAVYYCAARYRYWGGSGFKGFDYWGQGTQVTVSS	high polyreactivity
QVQLVESGGGLVQAGGSLRLSCAASGRIFYDNTMGWYRQAPGKERELFAAITWRVGNTNYADSVKGRFTISRDNAKNTVYLQMNSLNPEDTAVYYCAVRLLADDGYPAVVGYDYWGQGTQVTVSS	low polyreactivity
QVQLVESGGGLVQAGGSLRLSCAASGRIFKLYAMGWYRQAPGKERELGAAISTSAGSTNYADSEKGRFTISRDNAKNTVYLQMNSLKPEDPAVYYCAVAGVSTYYTYYYWGQGTQVTVSS	low polyreactivity
QVQIVESGGGLVQAGGSLRLSCAASGSTLYAYAMGWYRQAPGKERELVAAIRTGGSTYYADSVKGRFTISRDNAKNTVYLQMNSLKPEDTAVYYCADDHGYQYGYWGQATQVTVSS	low polyreactivity
QVQLVESGGGLVQAGGSLRLSCAASGRIFGYYGMGWYRQAPGKERELVAGITSSGGSTYYADSVKGRFTISRDNAKNTVYLQMNSLKPEDTAVYYCNVRRYGSRFDYWGQGTQVTVSS	high polyreactivity
QVQLVESGGGLVQAGGSLRLSCAASGGTFYFYAMGWDRQAPGKERELVAAISRSVGSTYYADSVKGRFTISRDNAKNTVYLQMNSLKPEDTAVYYCAARYTGGGIRYDYWGQGTQVTLSS	high polyreactivity
QVQLVESCGGLVQAGGSLRLSCAASGFIFSQNAMGWYIQAPGKEREIVAVISARGGRTYYADSVKGRFTISRDNAKNTVYLQMNSLKPEDTAVYDCARRDFWWSRRIFGYWGQGTQVTVSS	high polyreactivity

Sequence	polyreactivity (PSR sort gate)
QVQLVESGGGLVQAGGSLRLSCAASGGIFPDYAMGWYRQAPGKERELVAVISDSGGSTYYADSVKGRFTISRDNAKNTVYLQMNSLKPEDTAVYYCSAETEWYYGYYEYWGQGTQVTVSS	high polyreactivity
QVQLVESGGGLVQAGGSLRISCAASGRTFTRYAMGWYRQAPGKERELVASITTGGRTYYADSVKGRFTISRDNAKNTVYLQMNSLKPEDTAVYYCNADRVYAWYRTYDYWGQGTQVTVSS	high polyreactivity
QVQLVESGGGLVQAGGSLRLSCAASGRIFNYYAMGWYRQAPGKERELVATISRNGGRTYYADSVKGRFTISRDNAKNTVYLQMNSLKPEDTAVYYCATDGLYRYDYWGQGTQVTVSS	high polyreactivity
QVQLVESGGGLVQAGGSLRLSCAASGRTFWKYVMGWYRQAPGKERELVAVISRPAGSTYYADSVKGRFTISRDNAKNTVYLQMNSLKPEDTAVYYCAKRPKNKPVLGDYDQWGQGTQVTVSS	low polyreactivity
QVQLVESGGGLVQAGGSLRLSCAASVLIIWLYTMGWYRQAPGKERELVAAIDWSGGSTYYADSVKGRFTMSRDIAKNTVYLQMNRLKPEDTAVYYCAADPEPSYRFDYGGQGTQVTVSS	low polyreactivity
QVQLVESGGGLVQAGGSLRLSCAASGFIFTWYAMGWYRQAPGKEREFVAGISRSGGRTYYADSVKGRFTISRDNAKNTVYLHVNSLKPEVTAVFYCGAKYYIGFWLRDYYYWGQCTQVTVSS	high polyreactivity
QVQLVESGGGLVQAGGSLRLSCAASGFIFRKYAMGWYRQAPGKERELVAAIRQRGGTTYYADSVKGRFTISRDNAKNTVYLQMNSLKPEDTAVYYCAAPYSSAYKYDYWGQGTQVTVSS	high polyreactivity
QVQLVESGGGLVQAGGSLRLSCAASGRIFYPYAMGWYRQAPGKERELVARITWTTTSTYYADSVKGRFTISRDNAKNTVYLQMNSLKPDDTAVYYCAADGRVRTWGNLRDYWGQGTQVTVSS	high polyreactivity
QVQLVESGGGLVQAGGSLRLSCAASGSTFPTNAMGWYRQAPGKERELVADINGNGGRTYYADSVKGRFTISRDNAKNTVYLQMNSLKPEDTAVYYCAVEPDVYPSWYYYVDYDYWGQGTQVTVSS	low polyreactivity
QVQLVESRGGLVQAGGSLRLSCAASGPTFLINAMGCYRQAPGKETELVAEITGRGSSTYYADSVKGRFTISRDNAINTVYLQMNSLKAEDTAVYYCNAVLRKMTYDYWGQGTQVTVSS	high polyreactivity
QVQLVESGGGLVQAGGSLRLSCAASGSTFTRNAMGWYRQAPGKERELVARISRSGGSTYYADSVKGRFTISRDNAKNSVYLQMNSLKPEDTAVYDCNKDWYPRYPYVKGERDYWGEGTQVTVSS	high polyreactivity
QVQLVESGGGLFQAGGSLRLSCAASGSTLAGYTMGWYRQAPGKERELVASISFTGGSTYYADSVKGRFTISRDNAKNTVYLQMNSLKPEDTAVYYCAAGTWQYYFLYDTYRRYYYWGQGTQVTGSS	high polyreactivity
QVQLVESGGGLVQAGGSLRLSCAASGFIFATYAMGWYRQAPGKERELVAAISRRGVRTNYADSVKGRFTISRDNAKNTVYLQMNSLKQEDTAVYYCNAQSHYGKIPMYYWGQGTQVTVSS	high polyreactivity
QVQLVESGGGLVQAGGSLRLSCAASGSIFADYVMGWYRQAPGKERELVAAISRGGGRTYYADSVKGRFTISRDNAKNTVYLQMNSLKPEDTAVYYCAARGYPTNYDPGYTYDYWGQGTQVTVSS	high polyreactivity
QVQLVESGGGLVQAGGSLRLSCAASGLTFRYYAMGGYRQAPGKERELDAAITSSGTSTYYADSVKGRFTISRDNAKNTVSLQMNSLKPEDTAVYYCAARYSGGTWSGYNYWGQGTQVTVSS	high polyreactivity
QVQLVESGGGLVQAGGSLRLSCAASGSTFTSYAMGWYRQAPGKEREFVAAISQSSGSTYYADSVKWSFTISRDNAKNTVYLQMNSLKPEDTAVYYCAAKGRIRYGYGFDYWGQGTQVTVSS	high polyreactivity
QVQLVESGGGLVQAGGSLRLSCAASGLTFDNYAMGWYRQAPGKERELVAAISTSSGRTYYADSVKGRFTISRDNAKNTVYLQMNSLKPEDTAVYYCAAEVAFIYSYYEVYKYEYWGQGTQVTVSS	high polyreactivity
QVQLVESVGGLVQAGGSLRFSCAASGRIFKWYAMGWYRQAPGKEREFVAGIRWGGGRTHYADSVKGRFTISRDNAKNTVYLQMNSLKPEDTAVYYCAADNRGNTVYYRNYYWGQGTQVTVSS	high polyreactivity
QVQLVESGVGLVQAGGSLRLSCAASGRTFTPYAMGWYRQAPGKEREFVAAISIVGRTKYADSVKGRFTISRDNAKNTVYLQMNSLKPEDTAVYYCNAQDSRDRKFYWGYTRGHWGLGTQVTVSS	low polyreactivity
QVQLVESGGGLVQAGGSLRLTCAASGITFGGYAMGWYRQAPGKERELVATITSGGSTYYADSVKGRFTISRDNAKNTVYLQMNSLKPEDTAVYYCNAVYNYWFWGGYWHRPNARGDYWGQGTQVTVSS	high polyreactivity
QVQLVESGGGLGQAGGSLRLSCAASGSIFGYNVMGWYRQAPGKERELVAGITSGGSTNYADSVKGRFTISRDNAKNTVSLQMNSLKPEDTAVYYCNAEGVFGDGRSGFYWYDYWGEGTQVTVSS	low polyreactivity
